From patent publication US20150044245A1, “PARTIAL MHC CONSTRUCTS AND METHODS OF USE” (Oregon Health & Science University, priority 2012, published 2015)
Read-outs that look alike come from different tables or passages of the source.

Tests used:
CD80 = CD80 expression on CD11b+ monocytes from spinal cord of treated EAE mice; type: in vivo, mouse; details: day 15 post-immunization
Protocol: EAE was induced in mice by immunization with mMOG-35-55. At disease onset, the mice were treated with one of the following constructs: (i) pDR2 with covalently bound mMOG-35-55 (100 μg), (ii) pDR2 without peptide (1000 μg), (iii) DR-α1 (750 μg), or (iv) vehicle alone. The constructs were administered subcutaneously for two sequential days. On day 15 post-immunization, mice were sacrificed and spinal cords were harvested and pooled for each group. Isolated cells were stained for CD74, CD11b, CD80, ICAM, and HLA-DR expression and analyzed by FACS.

[1] = test system: MBP-85-99-induced EAE in MBP-TCR/DR2-Tg mice
Protocol: HLA-DR2 positive male and female mice between 8 and 12 weeks of age were immunized subcutaneously at four sites on the flanks with 0.2 ml of an emulsion of 200 μg immunogenic peptide and complete Freund's adjuvant containing 400 μg of heat-killed Mycobacterium tuberculosis H37RA (Difco, Detroit, Mich.) (Vandenbark et al, J Immunol 171:127-133, 2003; Buenafe et al, Immunology 130:114-124, 2010). In addition, mice were given pertussis toxin (Ptx) from List Biological Laboratories (Campbell, Calif.) on days 0 and 2 post-immunization (75 ng and 200 ng per mouse, respectively). Immunized mice were assessed daily for clinical signs of EAE on a 6 point scale of combined hind limb and forelimb paralysis scores. For hind limb scores: 0=normal; 0.5=limp tail or mild hind limb weakness (e.g., a mouse cannot resist inversion after a 90° turn of the base of the tail); 1=limp tail and mild hind limb weakness; 2=limp tail and moderate hind limb weakness (e.g., an inability of the mouse to rapidly right itself after inversion); 3=limp tail and moderately severe hind limb weakness (e.g., inability of the mouse to right itself after inversion and clear tilting of hind quarters to either side while walking); 4=limp tail and severe hind limb weakness (hind feet can move but drag more frequently than face forward); 5=limp tail and paraplegia (no movement of hind limbs). Front limb paralysis scores are either 0.5 for clear restriction in normal movement or 1 for complete forelimb paralysis. The combined score is the sum of the hind limb score and the forelimb score.
(§3) Rarely, there was mortality of HLA-DR2 mice with severe EAE and in these cases, mice were scored as a 6 for the remainder of the experiment. Mean EAE scores and standard deviations for mice grouped according to initiation of RTL or vehicle treatment were calculated for each day and summed for the entire experiment (Cumulative Disease Index, CDI, represents total disease load). Daily mean scores were analyzed by a two-tailed Mann Whitney U test for nonparametric comparisons between vehicle and pDR2 treatment groups. Mean CDIs were analyzed by a one way ANOVA with Tukey post-test, and a nonparametric one way Kruskal-Wallis ANOVA with Dunn's multiple comparisons post-test to confirm significance between all groups.
(§4) pDR2 constructs (Table 3) were injected subcutaneously daily for 5 days at the indicated doses to treat EAE induced in HLA-DR2-Tg and MBP-TCR/DR2-Tg mice and clinical signs were scored as described above. […] Fab1B11 alone in vehicle was run as a negative control.

[2] = test system: mMOG-35-55-induced EAE in DR*1501-Tg mice; details: for effect on EAE (in words): mMOG-35-55-induced EAE
[3] = target: MHC class II from DR*1501-Tg mice; assay: Direct binding of FITC-labeled constructs to MHC class II immuno-adsorbed from CD74-depleted lysate; parameters: species or system mouse; details: FITC-labeled ligand, read-out: MHC Class II One binding site KD
Protocol: (§1) In order to test ligand binding to the separate components of the RTL receptor, DR*1501-Tg splenocytes were biotinylated and lysed as described above and CD74 was immunoprecipitated overnight at 4° C. with the anti-CD74 monoclonal antibody ln-1. Immune complexes (Protein L-beads/ln-1/CD74) were analyzed for their ability to bind FITC-labeled pDR2RTL constructs by performing a direct binding saturation with increasing concentration of the different constructs (0 to 10 nM). Binding was carried out for 4 hours at 4° C. with gentle shaking and in the presence of 1% CHAPS in TEN buffer. Afterwards the complexes were washed thoroughly with 1% CHAPS/TEN and once with only TEN buffer to remove excess detergent. Bound proteins were eluted in 2% SDS electrophoresis sample buffer at 90° C. for 6 to 8 minutes and beads were sedimented. After the supernatant was collected and proteins separated using 10-20% SDS-PAGE, the gel was scanned for FITC chromophore and quantified by densitometry. Ligand concentration was plotted versus the fluorescence intensity of the bands and the curve generated was fit to one or two binding sites with the GraphPad Prism® Software. […] Direct binding to saturating concentrations of the pDR2 constructs was carried out and analyzed as described above.

CD74 [4] = target: T1, CD74 (Mus musculus, UniProt P04441); assay: Coimmunoprecipitation of FITC-labeled constructs with CD74; type: binding; details: FITC-labeled construct, bead-immunopurified CD74
T1 construct: DR*1501-Tg splenocytes were biotinylated and lysed as described above and CD74 was immunoprecipitated overnight; endogenous in cells; host or cells: splenocytes of DR*1501-Tg mice (surface-biotinylated, lysed in 1% CHAPS/TEN; CD74 captured on Protein L / ln-1 beads)
T1 sequence (P04441 1-215 isoform P04441-2): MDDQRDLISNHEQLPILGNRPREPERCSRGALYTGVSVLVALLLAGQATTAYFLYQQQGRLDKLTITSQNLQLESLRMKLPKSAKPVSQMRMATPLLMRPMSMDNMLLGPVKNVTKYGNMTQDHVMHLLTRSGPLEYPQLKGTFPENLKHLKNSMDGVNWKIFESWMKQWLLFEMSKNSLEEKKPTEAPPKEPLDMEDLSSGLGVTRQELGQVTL
Protocol: For immunoprecipitation experiments, antibody TU39 (BD Pharmingen) was pre-bound to bead-conjugated Protein A for 2 hours in ice-cold TEN-TX100 or TEN-CHAPS followed by RTL binding to these complexes. Lysate (previously pre-cleared with bead-conjugated Protein A) was added to the tube and binding was carried out overnight at 4° C. with soft orbital shaking Samples were extensively washed with TEN buffer and the appropriate detergent. For CD74 immunoprecipitation, ln-1 mAb was adsorbed to bead-conjugated Protein L as described above and pre-cleared lysate was added to this mixture. When necessary, bound material was eluted by boiling the immune complexes in electrophoresis sample buffer and analyzed by SDS-PAGE and Western blot.
(§2) For direct binding of RTL constructs, Protein-L/ln-1/CD74 complexes were prepared as described above. Labeled ligand constructs were incubated for 4 hours at 4° C. in 1% CHAPS in TEN buffer and free ligand was removed by extensive washing. Elution of bound proteins was carried out as described above and the eluate was analyzed by SDS-P AGE. […] In all assays involving fluorescent labeling, the chromophore was detected by scanning at the appropriate wavelength using a Molecular Imager® FX scanner (Bio-Rad) and the fluorescence intensity was determined using Quantity One® software (Bio-Rad) associated with the imager.

[5] = test system: hMOG-35-55-induced EAE in DR*1502-Tg mice; details: treated at disease onset
Protocol: In addition, mice were given pertussis toxin (Ptx) from List Biological Laboratories (Campbell, Calif.) on days 0 and 2 post-immunization (75 ng and 200 ng per mouse, respectively). Immunized mice were assessed daily for clinical signs of EAE on a 6 point scale of combined hind limb and forelimb paralysis scores. For hind limb scores: 0=normal; 0.5=limp tail or mild hind limb weakness (e.g., a mouse cannot resist inversion after a 90° turn of the base of the tail); 1=limp tail and mild hind limb weakness; 2=limp tail and moderate hind limb weakness (e.g., an inability of the mouse to rapidly right itself after inversion); 3=limp tail and moderately severe hind limb weakness (e.g., inability of the mouse to right itself after inversion and clear tilting of hind quarters to either side while walking); 4=limp tail and severe hind limb weakness (hind feet can move but drag more frequently than face forward); 5=limp tail and paraplegia (no movement of hind limbs). Front limb paralysis scores are either 0.5 for clear restriction in normal movement or 1 for complete forelimb paralysis. The combined score is the sum of the hind limb score and the forelimb score.
as §3, §4

CD74 [6] = target: T1, CD74; assay: Direct binding of FITC-labeled constructs to immuno-adsorbed CD74; details: FITC-labeled ligand, immuno-adsorbed CD74, 4 hours at 4° C., 1% CHAPS; read-out: CD74 One binding site KD
Protocol: as §1

CD74 [7] = target: T1, CD74; assay: Competition with labeled RTL1000 for binding to immunoprecipitated CD74; details: unlabeled competitor
Protocol: as §2

CD74 [8] = target: T2, CD74 (Mus musculus, UniProt P04441); assay: CD74 cell-surface expression on CD11b+ monocytes in vitro (FACS); type: cell-based; details: naïve CD11b+ monocytes, 1 hour at 37° C.
T2 construct: endogenous in cells; host or cells: CD11b+ monocytes of DR2 (DR*1501)-Tg mice: naive blood cells in vitro; blood, spleen and spinal cord cells of treated EAE mice
T2 sequence (P04441 1-279): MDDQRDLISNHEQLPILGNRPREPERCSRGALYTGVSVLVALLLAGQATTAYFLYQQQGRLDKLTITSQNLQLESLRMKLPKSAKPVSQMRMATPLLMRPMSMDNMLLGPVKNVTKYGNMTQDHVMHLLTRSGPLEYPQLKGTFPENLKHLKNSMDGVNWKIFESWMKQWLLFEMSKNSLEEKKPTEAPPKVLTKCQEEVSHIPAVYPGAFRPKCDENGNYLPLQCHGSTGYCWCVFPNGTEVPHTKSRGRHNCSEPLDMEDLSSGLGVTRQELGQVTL
Protocol: Analysis of naive DR2 PBMC subtypes was preformed using four-color (fluorescein isothiocyanate (FITC), phycoerythrin (PE), propidium iodide, allophycocyanin) flow cytometry. Blood was collected from naive DR2 mice through cardiac exsanguination into 1X PBS/EDTA. After washing blood in 1X PBS, the red blood cells were lysed with 1X RBC lysis buffer (eBioscience, Inc., San Diego, Calif.) followed by two washes in RPMI. One million cells were incubated in RPMI with 1 μg unlabeled pDR2, 1 μg pDR2FITC, or 1 μg Fab Neutralized pDR2FITC for one hour at 37° C. For samples assessing Fab neutralization of pDR2 binding, pDR2s were incubated with 1:1 molar ratio of Fab1B11 or FabD2 for two hours at room temperature prior to incubation with cells, pDR2 incubation was followed directly by a 30 minute incubation at 4° C. with CD3 PE (ebioscience, Inc., San Diego, Calif.), CD74 PE (Santa Cruz Biotechnology, Inc., Santa Cruz, Calif.), or CD11b PE, CD11b allophycocyanin, CD11c allophycocyanin, CD19 allophycocyanin (BD Pharmingen, San Diego, Calif.). Antibodies and pDR2 were thoroughly removed by two additional washes in 1X PBS/0.5% BSA staining media. Cells were resuspended in staining media containing propidium iodide and immediately analyzed with a FACSCALIBUR™ using FCS EXPRESS™ software (BD Biosciences, San Jose, Calif.). […]

[9] = MBP-TCR/DR2-Tg mice, treated for five days following onset
[10] = DR*1501-Tg mice, mMOG-35-55/CFA/Ptx EAE, treated at disease onset

B1: RTL302-5D: Human HLA DR2 (DRB1*1501/DRA*0101) β1α1 domains (V102D, I104D, A106D, F108D, L110D), no peptide (protein)
chain: MGDTRPRFLWQPKRECHFFNGTERVRFLDRYFYNQEESVRFDSDVGEFRAVTELGRPDAEYWNSQKDILEQARAAVDTYCRHNYGVVESFTVQRRVIKEEHDIDQDEDYDNPDQSGEFMFDFDGDEIFHVDMAKKETVWRLEEFGRFASFEAQGALANIAVDKANLEIMTKRSNYTPITN
CD80
  CD80 expression (in words): decreased
[1]; MBP-85-99-induced EAE
  effect on EAE (in words): ineffective at treating EAE
[1]; [9]
  CDI: 43.3 ± 12.0
  Incidence: 6/6
  Mortality: 0
  Onset: 17.5 ± 5.0
  Peak: 3.7 ± 0.8
[2]; 100 μg x 5 (Table 11)
  CDI: 43.1 ± 10.6
  Incidence: 9/9
  Mortality: 0
  Onset: 11.7 ± 1.1
  Peak: 3.3 ± 0.9
[2]; 1 mg x 2 (Table 11)
  CDI: 34.2 ± 6.2
  Incidence: 3/3
  Mortality: 0
  Onset: 9.0 ± 0.0
  Peak: 2.8 ± 0.3
[2]; [10]
  Incidence: 9/9
  Onset: 11.7 ± 1.1
[2]; DR*1501-Tg mice, treated at disease onset
  Mortality: 0
[2]; cumulative disease index, DR*1501-Tg mice, treated at disease onset
  CDI: 42.9 ± 10.7
[2]; listed as pDR2/no peptide
  effect on EAE (in words): significant reduction of daily and cumulative EAE scores compared to treatment with vehicle
[2]; listed as pDR2 without peptide
  effect on EAE (in words): lower than those treated with vehicle alone
[2]; peak clinical EAE score, DR*1501-Tg mice, treated at disease onset
  Peak: 3.3 ± 0.9
[3]
  Kd: > 10 nM
CD74 [4]
  coimmunoprecipitation with CD74 (in words): also coimmunoprecipitated with CD74, but at much lower levels
[5]; cumulative disease index
  CDI: 36.8 ± 7.1
[5]; hMOG-35-55/CFA/Ptx EAE
  Incidence: 6/6
  Onset: 15.0 ± 1.7
[5]; peak clinical EAE score
  Peak: 2.9 ± 0.5
[5]
  Mortality: 0
CD74 [6]
  Kd: > 10 nM

B2: DR-α1: construct comprising DR-α1 domain alone (with no DR2-β1 domain or peptide) (protein)
chain: IKEEHVIIQAEFYLNPDQSGEFMFDFDGDEIFHVDMAKKETVWRLEEFGRFASFEAQGALANIAVDKANLEIMTKRSNYTPITN
CD74 [7]
  competition with pDR2/hMOG-35-55 for binding to CD74 (in words): competed with pDR2/hMOG-35-55 for binding to CD74
CD74 [8]
  CD74 expression versus construct binding/concentration (in words): inverse relationship between pMHC concentration and CD74 expression
[2]; 100 μg daily X2 (Table 12)
  CDI: 32.9 ± 7.8
  Incidence: 4/4
  Mortality: 0
  Onset: 10.0 ± 1.2
  Peak: 2.6 ± 0.5
[2]; 300 μg daily X2 (Table 12)
  CDI: 24.1 ± 10.3
  Incidence: 11/11
  Mortality: 0
  Onset: 9.5 ± 0.8
  Peak: 2.3 ± 0.6
[2]; 500 μg daily X2 (Table 12)
  CDI: 20.7 ± 12.7
  Incidence: 10/10
  Mortality: 0
  Onset: 9.6 ± 0.7
  Peak: 2.5 ± 0.7
[2]; 1000 μg daily X2 (Table 12)
  CDI: 21.1 ± 9.9
  Incidence: 6/6
  Mortality: 0
  Onset: 10.7 ± 1.0
  Peak: 2.3 ± 0.4
[2]
  effect on EAE (in words): lower than those treated with vehicle alone
[3]
  Kd: > 10 nM
CD74 [4]
  coimmunoprecipitation with CD74 (in words): coimmunoprecipitated with CD74
